Measurements: publication PMC3257273, “Crystal Structure of a Human Single Domain Antibody Dimer Formed through VH-VH Non-Covalent Interactions” (PLoS ONE, 2012)

Molecular target: T1, human HER2 (ErbB2)/Fc chimera (Homo sapiens, UniProt P04626)
T1 construct: human epidermal growth factor receptor-2 (HER2, ErbB2), the part present in the bought HER2 (ErbB2)/Fc chimera; also called HER2/Fc; human epidermal growth factor receptor-2; source: bought: R&D Systems
Experiment: SPR; Biacore 3000; HER2 amine-coupled on CM5 chip (ovalbumin as reference surface); sdAb injected at 5 to 600 nM, 40 uL/min; room temperature; HBS-EP (10 mM HEPES pH 7.4, 150 mM NaCl, 3 mM EDTA, 0.005% P20); 1:1 Langmuir model
Conditions: both partners purified

B1: Gr3 (VHH)
VHH: QVQLVESGGGLIKPGGSLRLSCAASGFTVSYESMGWVRQAPGKGLEWVSAISSSGGSTYYADSVKGRFTISRDNSKNTVYLQMNSLRAEDTAVYYCVTPERQCKQSTCYARPRYWGQGTMVTVSS
notes: differs from Gr6 only in CDR1 and CDR3; selected from a synthetic human VH phage display library; Single-domain antibody from a human VH, not a camelid VHH; the vector may add further C-terminal residues besides the His tag; also called anti-HER2 sdAb Gr3; human VH single-domain antibody; source: E. coli periplasm, purified (IMAC, Ni-NTA / HiTrap chelating HP)
- Kd: 68 nM
- koff: 0.02 s⁻¹
- kon: 290000 M⁻¹ s⁻¹
